Data as given in patent US20090221691A1 (UNIVERSITY OF ROCHESTER, published 2009).
Where two headings read alike, the source gives them in different places.

B1: phage C4 (…) (peptide)
peptide: SCEKRYGIEFCT
B2: phage 3.14 (SIGKALFILGYPDYD) (peptide)
peptide: SIGKALFILGYPDYD
B3: phage 2F (LCSKAYLLLGQTC) (peptide)
peptide: LCSKAYLLLGQTC
notes: Group I
B4: phage C5 (SCEKRLGVRSCT) (peptide)
peptide: SCEKRLGVRSCT
notes: Group III
B5: phage C4 (SCEKRYGIEFCT) (peptide)
peptide: SCEKRYGIEFCT
notes: Group III
B6: phage C1 (SCKRTKAQILLAPCT) (peptide)
peptide: SCKRTKAQILLAPCT
notes: Group I; also called Cl
B7: phage 3C (SCGHGLKVQSTIGACA) (peptide)
peptide: SCGHGLKVQSTIGACA
notes: Group II
B8: phage C2 (WCPPKLEQWYDGCA) (peptide)
peptide: WCPPKLEQWYDGCA
notes: Group IV
B9: phage C14 (WCPPKAMTQLGIKAC) (peptide)
peptide: WCPPKAMTQLGIKAC
notes: Group II

Key:
[1] = target: biotinylated Gβ1γ2 mutant His62Ala (rat) (UniProt P54311); test: phage ELISA, % of wild-type b-βγ
[2] = target: biotinylated Gβ1γ2 mutant Tyr145Ala (rat) (UniProt P54311); test: phage ELISA, % of wild-type b-βγ
[3] = target: biotinylated Gβ1γ2 mutant Met188Ala (rat) (UniProt P54311); test: phage ELISA, % of wild-type b-βγ
[4] = target: biotinylated Gβ1γ2 mutant Trp332Ala (rat) (UniProt P54311); test: phage ELISA, % of wild-type b-βγ
[5] = target: biotinylated Gβ1γ2 mutant Arg314Ala (rat) (UniProt P54311); test: phage ELISA, % of wild-type b-βγ
[6] = target: biotinylated Gβ1γ2 mutant Asn230Ala (rat) (UniProt P54311); test: phage ELISA, % of wild-type b-βγ
[7] = target: biotinylated Gβ1γ2 mutant Asp246Ser (rat) (UniProt P54311); test: phage ELISA, % of wild-type b-βγ
[8] = target: biotinylated Gβ1γ2 mutant His311Ala (rat) (UniProt P54311); test: phage ELISA, % of wild-type b-βγ
[9] = target: biotinylated Gβ1γ2 mutant Met101Ala (rat) (UniProt P54311); test: phage ELISA, % of wild-type b-βγ
[10] = target: biotinylated Gβ1γ2 mutant Lys57Ala (rat) (UniProt P54311); test: phage ELISA, % of wild-type b-βγ
[11] = target: biotinylated Gβ1γ2 mutant Phe292Ala (rat) (UniProt P54311); test: phage ELISA, % of wild-type b-βγ
[12] = target: biotinylated Gβ1γ2 mutant Leu117Ala (rat) (UniProt P54311); test: phage ELISA, % of wild-type b-βγ
[13] = target: biotinylated Gβ1γ2 mutant Trp99Ala (rat) (UniProt P54311); test: phage ELISA, % of wild-type b-βγ
[14] = target: biotinylated Gβ1γ2 mutant Tyr145Ala (rat) (UniProt P54311); test: flow cytometry, dissociation of Fαi1 from immobilized b-β1γ2
[15] = target: biotinylated Gβ1γ2 mutant Met188Ala (rat) (UniProt P54311); test: as above
[16] = target: biotinylated Gβ1γ2 mutant Trp332Ala (rat) (UniProt P54311); test: as above
[17] = target: biotinylated Gβ1γ2, wild-type (BAP-rat Gβ1 with Gγ2) (rat) (UniProt P54311); test: as above
[18] = target: biotinylated Gβ1γ2 mutant Arg314Ala (rat) (UniProt P54311); test: as above
[19] = target: biotinylated Gβ1γ2 mutant Asn230Ala (rat) (UniProt P54311); test: as above
[20] = target: biotinylated Gβ1γ2 mutant Tyr59Ala (rat) (UniProt P54311); test: as above
[21] = target: biotinylated Gβ1γ2 mutant Met101Ala (rat) (UniProt P54311); test: as above
[22] = target: biotinylated Gβ1γ2 mutant Lys57Ala (rat) (UniProt P54311); test: as above
[23] = target: biotinylated Gβ1γ2 mutant Asp186Ala (rat) (UniProt P54311); test: as above
[24] = target: biotinylated Gβ1γ2 mutant Leu117Ala (rat) (UniProt P54311); test: as above
[25] = target: biotinylated Gβ1γ2 mutant Trp99Ala (rat) (UniProt P54311); test: as above
[26] = target: biotinylated Gβ1γ2 mutant Tyr145Ala (rat) (UniProt P54311); test: phage ELISA, % of wild-type b-βγ; remark: listed apart in the source
[27] = target: biotinylated Gβ1γ2 mutant Met188Ala (rat) (UniProt P54311); test: phage ELISA, % of wild-type b-βγ; remark: listed apart in the source
[28] = target: biotinylated Gβ1γ2 mutant Trp332Ala (rat) (UniProt P54311); test: phage ELISA, % of wild-type b-βγ; remark: listed apart in the source
[29] = target: biotinylated Gβ1γ2 mutant Arg314Ala (rat) (UniProt P54311); test: phage ELISA, % of wild-type b-βγ; remark: listed apart in the source
[30] = target: biotinylated Gβ1γ2 mutant Asn230Ala (rat) (UniProt P54311); test: phage ELISA, % of wild-type b-βγ; remark: listed apart in the source
[31] = target: biotinylated Gβ1γ2 mutant Asp246Ser (rat) (UniProt P54311); test: phage ELISA, % of wild-type b-βγ; remark: listed apart in the source
[32] = target: biotinylated Gβ1γ2 mutant His311Ala (rat) (UniProt P54311); test: phage ELISA, % of wild-type b-βγ; remark: listed apart in the source
[33] = target: biotinylated Gβ1γ2 mutant Tyr59Ala (rat) (UniProt P54311); test: phage ELISA, % of wild-type b-βγ
[34] = target: biotinylated Gβ1γ2 mutant Met101Ala (rat) (UniProt P54311); test: phage ELISA, % of wild-type b-βγ; remark: listed apart in the source
[35] = target: biotinylated Gβ1γ2 mutant Lys57Ala (rat) (UniProt P54311); test: phage ELISA, % of wild-type b-βγ; remark: listed apart in the source
[36] = target: biotinylated Gβ1γ2 mutant Asp186Ala (rat) (UniProt P54311); test: phage ELISA, % of wild-type b-βγ
[37] = target: biotinylated Gβ1γ2 mutant Leu117Ala (rat) (UniProt P54311); test: phage ELISA, % of wild-type b-βγ; remark: listed apart in the source
[38] = target: biotinylated Gβ1γ2 mutant Trp99Ala (rat) (UniProt P54311); test: phage ELISA, % of wild-type b-βγ; remark: listed apart in the source
[39] = target: T1, biotinylated Gβ1γ2, wild-type (BAP-rat Gβ1 with Gγ2) (rat, UniProt P54311 1-340; P63212 2-68, biotin on the lysine acceptor residue of the BAP); test: phage ELISA on immobilized b-βγ
T1 construct: immobilized on streptavidin in the assays; also called b-βγ; b-Gβ1γ2; not shown: 20 amino acid biotin acceptor peptide (BAP) fused to the N-terminus
Description: Phage ELISA assays used to assess peptide binding to wild-type and mutant b-βγ were performed according to standard methods (Smrcka and Scott (2002) Methods Enzymol. 344:557-76). Briefly, 1 μg streptavidin was immobilized in the well of a […] overnight at 4° C. The wells were blocked with 100 μL of 2% bovine serum albumin (BSA) in Tris-buffered saline (TBS) for 1 hour at 4° C. followed by three washes of 1×TBS/0.5% TWEEN®. […] The wells were washed, followed by the addition of 1×10⁶ to 1×10¹⁰ phage particles and incubated at 4° C. for 3 hours. The wells were then washed six times with TBS/0.5% TWEEN® followed by addition of 40 μL of 1:5000 dilution of anti-M13 antibody (Pharmacia, Uppsala, Sweden) and incubated at room temperature for 1 hour. The wells were washed, followed by the addition of 40 μL of (2,2′-Azino-bis(3-ethylbenzthiazoline)-6-sulfonic acid (ABTS) and the […] reaction was monitored at 405 nm. Non-specific binding was subtracted for each reading.

biotinylated Gβ1γ2 mutant Asp186Ala (rat), sequence (P54311 whole entry D186A, chain 1 of 2): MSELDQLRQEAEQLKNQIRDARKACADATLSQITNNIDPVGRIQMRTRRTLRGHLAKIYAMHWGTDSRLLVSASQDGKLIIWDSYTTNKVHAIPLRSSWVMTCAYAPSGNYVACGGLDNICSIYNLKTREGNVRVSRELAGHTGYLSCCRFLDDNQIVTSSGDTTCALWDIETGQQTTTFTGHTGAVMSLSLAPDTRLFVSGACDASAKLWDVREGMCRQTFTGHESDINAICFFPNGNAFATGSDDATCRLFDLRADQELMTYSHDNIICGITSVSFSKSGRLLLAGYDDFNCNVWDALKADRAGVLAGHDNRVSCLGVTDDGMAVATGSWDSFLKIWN
biotinylated Gβ1γ2 mutant Asp186Ala (rat), sequence (P63212 2-68, chain 2 of 2, further chain): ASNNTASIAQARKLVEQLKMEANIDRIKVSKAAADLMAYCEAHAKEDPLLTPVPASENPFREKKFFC
biotinylated Gβ1γ2 mutant Asp246Ser (rat), sequence (P54311 whole entry D246S, chain 1 of 2): as the sequence (P54311 whole entry D186A, chain 1 of 2) above, with A186D, D246S counted along it
biotinylated Gβ1γ2 mutant Asp246Ser (rat), sequence (P63212 2-68, chain 2 of 2, further chain): as the sequence (P63212 2-68, chain 2 of 2, further chain) above
biotinylated Gβ1γ2 mutant Lys57Ala (rat), sequence (P54311 whole entry K57A, chain 1 of 2): as the sequence (P54311 whole entry D186A, chain 1 of 2) above, with K57A, A186D counted along it
biotinylated Gβ1γ2 mutant Lys57Ala (rat), sequence (P63212 2-68, chain 2 of 2, further chain): as the sequence (P63212 2-68, chain 2 of 2, further chain) above
biotinylated Gβ1γ2 mutant Tyr145Ala (rat), sequence (P54311 whole entry Y145A, chain 1 of 2): as the sequence (P54311 whole entry D186A, chain 1 of 2) above, with Y145A, A186D counted along it
biotinylated Gβ1γ2 mutant Tyr145Ala (rat), sequence (P63212 2-68, chain 2 of 2, further chain): as the sequence (P63212 2-68, chain 2 of 2, further chain) above
biotinylated Gβ1γ2 mutant Arg314Ala (rat), sequence (P54311 whole entry R314A, chain 1 of 2): as the sequence (P54311 whole entry D186A, chain 1 of 2) above, with A186D, R314A counted along it
biotinylated Gβ1γ2 mutant Arg314Ala (rat), sequence (P63212 2-68, chain 2 of 2, further chain): as the sequence (P63212 2-68, chain 2 of 2, further chain) above
biotinylated Gβ1γ2 mutant His311Ala (rat), sequence (P54311 whole entry H311A, chain 1 of 2): as the sequence (P54311 whole entry D186A, chain 1 of 2) above, with A186D, H311A counted along it
biotinylated Gβ1γ2 mutant His311Ala (rat), sequence (P63212 2-68, chain 2 of 2, further chain): as the sequence (P63212 2-68, chain 2 of 2, further chain) above
biotinylated Gβ1γ2 mutant Met101Ala (rat), sequence (P54311 whole entry M101A, chain 1 of 2): as the sequence (P54311 whole entry D186A, chain 1 of 2) above, with M101A, A186D counted along it
biotinylated Gβ1γ2 mutant Met101Ala (rat), sequence (P63212 2-68, chain 2 of 2, further chain): as the sequence (P63212 2-68, chain 2 of 2, further chain) above
biotinylated Gβ1γ2 mutant Trp99Ala (rat), sequence (P54311 whole entry W99A, chain 1 of 2): as the sequence (P54311 whole entry D186A, chain 1 of 2) above, with W99A, A186D counted along it
biotinylated Gβ1γ2 mutant Trp99Ala (rat), sequence (P63212 2-68, chain 2 of 2, further chain): as the sequence (P63212 2-68, chain 2 of 2, further chain) above
T1 sequence (P54311 whole entry, chain 1 of 2, the tested form may be a part): as the sequence (P54311 whole entry D186A, chain 1 of 2) above, with A186D counted along it
T1 sequence (P63212 2-68, chain 2 of 2): as the sequence (P63212 2-68, chain 2 of 2, further chain) above
biotinylated Gβ1γ2 mutant Leu117Ala (rat), sequence (P54311 whole entry L117A, chain 1 of 2): as the sequence (P54311 whole entry D186A, chain 1 of 2) above, with L117A, A186D counted along it
biotinylated Gβ1γ2 mutant Leu117Ala (rat), sequence (P63212 2-68, chain 2 of 2, further chain): as the sequence (P63212 2-68, chain 2 of 2, further chain) above
biotinylated Gβ1γ2 mutant Tyr59Ala (rat), sequence (P54311 whole entry Y59A, chain 1 of 2): as the sequence (P54311 whole entry D186A, chain 1 of 2) above, with Y59A, A186D counted along it
biotinylated Gβ1γ2 mutant Tyr59Ala (rat), sequence (P63212 2-68, chain 2 of 2, further chain): as the sequence (P63212 2-68, chain 2 of 2, further chain) above

Molecule	% of Wild-Type Signal [26] [%]	% of Wild-Type Signal [27] [%]	% of Wild-Type Signal [28] [%]	% of Wild-Type Signal [29] [%]	% of Wild-Type Signal [30] [%]	% of Wild-Type Signal [31] [%]	% of Wild-Type Signal [32] [%]	% of Wild-Type Signal [33] [%]	% of Wild-Type Signal [34] [%]	% of Wild-Type Signal [35] [%]	% of Wild-Type Signal [36] [%]	% of Wild-Type Signal [37] [%]	% of Wild-Type Signal [38] [%]	binding result [39]	also measured
phage displaying SIGK peptide															% of Wild-Type Signal [1]: 111%; % of Wild-Type Signal [2]: 0.8%; % of Wild-Type Signal [3]: 2.5%; % of Wild-Type Signal [4]: 7.1%; % of Wild-Type Signal [5]: 50.2%; % of Wild-Type Signal [6]: 22.4%; % of Wild-Type Signal [7]: 66.5%; % of Wild-Type Signal [8]: 94.3%; % of Wild-Type Signal [9]: 32.2%; % of Wild-Type Signal [10]: 18.6%; % of Wild-Type Signal [11]: 109%; % of Wild-Type Signal [12]: 2.1%; % of Wild-Type Signal [13]: 66%
Fluorescein-labeled Gαi1															koff [14]: 0.00258 s⁻¹; koff [15]: 0.00203 s⁻¹; koff [16]: 0.00502 s⁻¹; koff [17]: 0.00205 s⁻¹; koff [18]: 0.00197 s⁻¹; koff [19]: 0.00247 s⁻¹; koff [20]: 0.00302 s⁻¹; koff [21]: 0.0019 s⁻¹; koff [22]: 0.0024 s⁻¹; koff [23]: 0.00267 s⁻¹; koff [24]: 0.00602 s⁻¹; koff [25]: 0.0048 s⁻¹
B1	4.4	128	1.7	1.4	11.5	35.8	36.5	7.6	61.2	-0.2	51.3	18.4	67		
B2	0.8	2.5	7.1	50.2	22.4	66.5	93.4	24.7	26.8	18.6	14.4	2.1	66	binds	
B3	0.1	8.5	-1.5	2.4	27.6	0.6	23.6	-2	6	-4.5	2.4	2.1	32.6	binds	
B4	16.7	97.2	3.2	76.5	33.5	56.3	58.7	73.8	47.8	5.6	45.7	28.5	39	binds	
B5														binds	
B6	88	4	-0.3	2.8	19.8	2.3	3	0.3	70.5	0.1	1.4	5.2	1.2	binds	
B7	2.7	-5.7	-0.3	8.3	4.1	2	30.5	8.5	-4.2	3.6	35	10	-0.5	binds	
B8	4.5	-0.7	4.7	1.3	0	5.9	11.7	-1.7	157	-1.2	267	1.5	-1	binds	
B9	1.9	9.9	1.6	3.9	60	6.3	6.1	3.6	1.1	3	3.6	3.8	10.1	binds	
